Test results as given in article PMC5596342, “Activity-Related Conformational Changes in D,D-Carboxypeptidases Revealed by In Vivo Periplasmic Förster Resonance Energy Transfer Assay in Escherichia coli” (mBio, 2017).
Changes are numbered by the printed parent chain. Names may count otherwise.

B1: PBP6a (D,D-carboxypeptidase, dacC), fusions mNG-PBP6a and mCh-PBP6a (enzyme, Escherichia coli, UniProt P08506 28-400, looked up)
chain: AEQTVEAPSVDARAWILMDYASGKVLAEGNADEKLDPASLTKIMTSYVVGQALKADKIKLTDMVTVGKDAWATGNPALRGSSVMFLKPGDQVSVADLNKGVIIQSGNDACIALADYVAGSQESFIGLMNGYAKKLGLTNTTFQTVHGLDAPGQFSTARDMALLGKALIHDVPEEYAIHKEKEFTFNKIRQPNRNRLLWSSNLNVDGMKTGTTAGAGYNLVASATQGDMRLISVVLGAKTDRIRFNESEKLLTWGFRFFETVTPIKPDATFVTQRVWFGDKSEVNLGAGEAGSVTIPRGQLKNLKASYTLTEPQLTAPLKKGQVVGTIDFQLNGKSIEQRPLIVMENVEEGGFFGRVWDFVMMKFHQWFGSWFS
notes: PBP6a (dacC) of Escherichia coli; construct details in Text S7 and S8; One molecule for the two differently tagged copies; also called FP-PBP6a; source: E. coli, expressed from plasmids pSAV057 and pTHV037 (15 µM IPTG), in the periplasm of fixed cells; not shown: mNeonGreen (donor copy) or mCherry (acceptor copy), N-terminal, kept
B2: PBP6a^S66G active-site mutant, fusions mNG-PBP6a^S66G and mCh-PBP6a^S66G (enzyme, Escherichia coli, UniProt P08506 28-400, looked up)
chain: B1 chain with S39G
notes: PBP6a (dacC) of Escherichia coli with the active-site serine 66 changed to glycine; One molecule for the two differently tagged copies; source: E. coli, expressed from plasmids pSAV057 and pTHV037, in the periplasm of fixed cells; not shown: mNeonGreen (donor copy) or mCherry (acceptor copy), N-terminal, kept
B3: PBP6b^S63G active-site mutant, fusions mNG-PBP6b^S63G and mCh-PBP6b^S63G (enzyme, Escherichia coli, UniProt P33013 22-388, looked up)
chain: AENIPFSPQPPEIHAGSWVLMDYTTGQILTAGNEHQQRNPAGLTKLMTGYVVDRAIDSHRITPDDIVTVGRDAWAKDNPVFVGSSLMFLKEGDRVSVRDLSRGLIVDSGNDACVALADYIAGGQRQFVEMMNNYAEKLHLKDTHFETVHGLDAPGQHSSAYDLAVLSRAIIHGEPEFYHMYSEKSLTWNGITQQNRNGLLWDKTMNVDGLKTGHTSGAGFNLIASAVDGQRRLIAVVMGADSAKGREEEARKLLRWGQQNFTTVQILHRGKKVGTERIWYGDKENIDLGTEQEFWMVLPKAEIPHIKAKYTLDGKELTAPISAHQRVGEIELYDRDKQVAHWPLVTLESVGEGSMFSRLSDYFHHKA
notes: PBP6b (dacD) of Escherichia coli with the active-site serine 63 changed to glycine; One molecule for the two differently tagged copies; source: E. coli, expressed from plasmids pSAV057 and pTHV037, in the periplasm of fixed cells; not shown: mNeonGreen (donor copy) or mCherry (acceptor copy), N-terminal, kept
B4: PBP5 (D,D-carboxypeptidase, dacA), fluorescent-protein fusions mNG-PBP5 and mCh-PBP5 (enzyme, Escherichia coli, UniProt P0AEB2 30-403, looked up)
chain: DDLNIKTMIPGVPQIDAESYILIDYNSGKVLAEQNADVRRDPASLTKMMTSYVIGQAMKAGKFKETDLVTIGNDAWATGNPVFKGSSLMFLKPGMQVPVSQLIRGINLQSGNDACVAMADFAAGSQDAFVGLMNSYVNALGLKNTHFQTVHGLDADGQYSSARDMALIGQALIRDVPNEYSIYKEKEFTFNGIRQLNRNGLLWDNSLNVDGIKTGHTDKAGYNLVASATEGQMRLISAVMGGRTFKGREAESKKLLTWGFRFFETVNPLKVGKEFASEPVWFGDSDRASLGVDKDVYLTIPRGRMKDLKASYVLNSSELHAPLQKNQVVGTINFQLDGKTIEQRPLVVLQEIPEGNFFGKIIDYIKLMFHHWFG
notes: PBP5 (dacA) of Escherichia coli; the FP is fused to the N terminus; construct details in Text S7 and S8; One molecule for the two differently tagged copies (mNG-PBP5 and mCh-PBP5), each chain carrying only one of the two fluorescent proteins; PDB 5J8X is a soluble form that lacks the C-terminal helix; also called FP-PBP5; source: E. coli, expressed from plasmid pSAV057 or pTHV037 (15 µM IPTG), in …
B5: PBP5^S44G active-site mutant, fusions mNG-PBP5^S44G and mCh-PBP5^S44G (enzyme, Escherichia coli, UniProt P0AEB2 30-403, looked up)
chain: B4 chain with S44G
notes: PBP5 (dacA) of Escherichia coli with the active-site change of Ser to Gly at position 44; One molecule for the two differently tagged copies; also called FP-PBP5^S44G; source: E. coli ΔdacA strain, expressed from plasmids pSAV057 and pTHV037, in the periplasm of fixed cells; not shown: mNeonGreen (donor copy) or mCherry (acceptor copy), N-terminal, kept

Target: the molecule itself
Test: FRET or BRET; spectrum-based periplasmic FRET (mNG donor, mCh acceptor, spectral unmixing, acceptor FRET efficiency EfA) in E. coli grown in Gb1 at 28°C, induced with 15 µM IPTG, fixed with 2.8% formaldehyde and 0.04% glutaraldehyde, measured in PBS in a spectrofluorimeter; where indicated cells treated with 2 µg/ml amdinocillin or 1 µg/ml aztreonam during induction; cut-off for interaction EfA above 1.4%

Point of comparison: B5, “EfA (acceptor FRET efficiency)” value 5.4%. Against it:
- B1 — lower, 3.2%
- B2 — lower, 3.8%
- B3 — lower, 2%
- B4 — lower, 2%
